Experimental findings from the DeepSol protein solubility set are described below.

The data set is described as follows: soluble on expression in E. coli; label from the status in PepcDB or PDB records.
Consider “MNRLKSDQKTKLRQFVQWTQVTEAVSLNFLAKANWNIEYAMTLYFDNPNLFAGSTPQPSVDRSNIERLFNQYVDPKDKVGEKRMGPHGINRLLTDLGYEATDRRVLVLAWKFTAQTQCEFSLDEWVKGMTALQADTVQNLRQRIDSINSGLESDKAKFHELYLFAFNYAKSAACRNLDLETAICCWDVLFGQRSTIMTQWIDFLWAQENAAASRLAQNVGASNAKQFKSVWISRDTWNLFWDFILLSKPDLSDYDDEGAWPVLIDQFVDYCRENLNYPKPGNASNDQQMETPSYY”, for which the “soluble on expression in E. coli” value was “not soluble”.
With “DRFSTAVLALSLFQGAYTAEIFRAGLNSIPKGQFEAAQTLGLSPFYTYKDVILPQVLQRTLPPLTNEVVSLIKNSSIVSVMAIFDLTTQARNIVSETAMPFE”, the “soluble on expression in E. coli” value is on record as “not soluble”.
In the case of “FPDPSFIIDAEGRFLDCLTDPETMLTVDDTDTLVGQTLHEFFPHDTADSLLAAVRAALRTGSFQSVEYKLQVPSDKRWFEARVAPLESRAYDPDTVIFVARDI” it was “not soluble”; in that of “MGSDKIHHHHHHMQIAVSGGKGGTGKSTVAINLAVELAKKFKLVLADLDVEAPNDHLLLGVELQNEREVHQFMPKFNYSKCIKCRKCAEACEEHAIVTLRDGTPFLMPTLCSGCRACEIVCPVPGAIEEGSRLIGHTYETLTPYGFTLVTGKLREGEERSMPLVVAAKRRAKELKWDLLIVDTAAGTGNTVSKAIEGSQLLIAVTEPTPLGIHDTELILKLGELMRIETWIVINRSDLGDVKEVYRRAKKYNAEVIAEIPYSENIVKTYVAGKPIVTTDYPEAGIFREIAEKVYEFLR”, “not soluble”.
In the case of “YKIDFYRNFLVPLKVGKIKKIILDLRGNGGGMVLDARTFTDRFITKDAIFGYQRFKEDNNPFSYTPWIPCMTKTTGIGIKKEIPIVILLDNNSASMSEISTLMLKSQGKHVTVVGGYSAGATAGLGDSDQFNGGIRGKVSDYLEFYMPLLAMQDATHTVIEGIGIKPDLLVDPLTEDEVREMALSPFTHIDRTLKQAIEVLSNN” it was “not soluble”; in that of “MRYQKLEIQEANWQWKYLLKKHREGENITKHTEQSLIELKVQFLTTLQHSPAEIEQWIKAEMTAEQRKRMRQSIRAKRKRFFNAEKLTTKKKSIDLDYASWLRLSKYSKTHAMTLSETINHLIDERENQHLYSEQMAKMKASLKDLLK”, “not soluble”; in that of “MSLGTVTITEMDCVDGVHRIGVATLDNTPSLNALTFDMLLQLHDQLIKWQHDPHVVCVVLSGAGEKAFCAGGDVRAMYHVMHNESKEATVEFCTKYFALEYECDYLIHTYNKPIIGWGEGIVMGGGMGLFMGTSHKVVTPISRLAMPEINIGLYPDVGGTWFLSQIDPEVGLFLGLTGALVNSSDAVTTGLADWLLLEEQYPTLLKELQKVPWGTSGAKELVSALLALLEEQIIDSKPTTQICPHLEQIKEACKGVDLNLIAQRIMAMEDSSPWIAGAKETFSSGSPITAHICFRQVKEYHRLPLADCFRLELSLSVRCALLGEFEEGVRARLIDRDGEPNWMFKTVSEVDEDVIDLLFTSLWADAEHPLAKLGEGHHHHHH”, “soluble”.
For the sequence “MSDLYVTKEGDMVDAICWRYYAKGQQALAVERVYAANFGLADYGPILKAGITIVLPILPYPKATPVIRIWGSQS”, the “soluble on expression in E. coli” value is “not soluble”.
In the case of “MGSDKIHHHHHHMNAPFVPSRVVARLADPGERPAVARFLDAHPDATVFHRAAWLDAVEQSTGHRTHVLVSGQDEAIRAVLPLHEVHSPLFGRALVSTGFGVGGGVVGKGDAALFAAAQELAVRLNCPTVELRGGPLPQGDGWHVKTDSHAGFVTPLAADDEAQLLAIPRKQRAEVRRGLGYGMEVRTGRSPEDRAMHHAVYAQSVRNLGTPVFPRRLFDAVLDGFGDDADILTVLHEGRPLASVLSLYHRGAVMPYWGGGTFEARAMRANDVMYYALMNHARARGCDRFDFGRSKVDSGAYHFKRNWGFAPQPLSYAHWTADGQAPRDVNPLSPRYRARIALWQKLPLAVANRLGPIIANGLA” it was “not soluble”; in that of “MKVEEQYLQLFRENREAIDSHSPRVLNEQREKASMAFASKGLPRYGTENYQRTDLSELFGYDYGVNLNRVNFPIRQKEAFHCTLPDLDTDLCYIVNDAYDNEWSRVSELPEGAFVGSLSDFALSHPEIAARYYAQAAAPDHDGIIAFSTMFAQDGFIIYLPDGAVLKNPIQLVQLLRADMEIL”, “not soluble”.
In the case of “MKNGEQNGPTTCTNCFTQTTPVWRRNPEGQPLCNACGLFLKLHGVVRPLSLKTDVIKKRNRNSANS” it was “soluble”; in that of “NAFVSIQTSTIPKTAFVARDFVPLQNRGNQWVAPVRASEDDPALAKSYLDFAIIEVPLFLHNQMDKQIYDHFMRPAINTYERLGNSVGIFAYQPMASFKRDSYFALGYPQVESNIAALNLNQTEVKPTRPEDVAQVTFKEPWSVDHHREIPTLTTNQLTTIKTKHFSGSKLSWPFDHTKSF”, “not soluble”; in that of “HVFVVDFNGSIDAKEVSSLREEVSAILSVAKPEDEVFVRLESGGGMVHGYGLASSQLDRIRQHNIPLTVSVDKVAASGGYMMACVANNIISAPFAILGSIGVIAQVPNFNKLLKKHDIDFEQFTAGEFKRTVTMFGENTEKGKEKFIEELEETHVLFKNFVSERRPSLDIVKVATGEHWFGTTALELGLVDSIQTSDD”, “not soluble”.
“MGSDKIHHHHHHMQLSSRPSSLVLDHHQNKFLTPWSDPADPHILFPIQPLEQLLVQLGWPDPQAWLIHWQKRGGISLKRPFWHPSTRTDWIWGLGLPLLTLVEGCLGKSDRSLLGITGLPGCGKTSLGCWLEAAAGELGWPIKVISLDDFYWPFPQLDRSMSGNPWRVPRALPGSHDLDLLASVLDTWQSTGHLKAPMFDKALRHGRGDRDGWHLSDPKVLVIEGWILGCLPCKFAEAGQFSDQLVPPLNKLEHDYRLVVQEALNGYVPIWDRLDTLWHLKAIDPSSTRIWKANQESLMQLNRGVCLDQESFEGFVRMILASIPLTCLDGIEADVVATLTPARQLMWVGQRGYQDSSSSDSCIG”: the “soluble on expression in E. coli” value is given as “not soluble”.
Consider “MAHHHHHHMKGDAEVVDIGSEVLSVTFSNSGRRLAVLTMRQEISVYETVVPTEPIIIKTFQTSFDAAGGWNKTVGPRSANYNARFNVIAFSPEGEKIVAGGDSKWIVMYHATQGYMLKKWPVTTNQDVQGAEEQYQWRQMTEAGHVDDIDVDDADIHLRRGKIMEMPGSRHRHFATGKRQTALTARTMDLAFSCTGTEFVAATTDGLLMFSTRVARPKFQPLQLSANITTQQVRDQLDRGEPVMALMGAMKLGDKMLGVECLRRMPRDAIPVAVSSVPSVLFPLLVQWVSTEVEESRGIEQALLWAQSLMLHSNECTGGFAQERSAVIPALKVLQRGLQQHRALTDLAKENYFSLRYIIDMTKMQKDILQPAATVE”, for which the “soluble on expression in E. coli” value is recorded as “not soluble”.
Under “GPGSMQVINENSLREFYAHVYPVELVTQWLSYRLSQPRLSAGSSVAVVKGEPTAVSGEESKDGVRHVLGIKAEPCDAVGAAAGADDEDKEWLNGKGAAAAEGYLARREFCFTLIGDIFTRFRSYRSSEELRAELVRCFPEKIDVGAVYNIRPNQKQGLANVFPVERELVFDIDMSDYDNVRSCCSGKSICSYCWAWMSCAAHVLHTVLRDDFGFKYILPVFSGRRGIHLWVCDRRARRMTNDERTALVGYLTVVAPKTLRSTIVADLANHRLIHPTIRHVLRTQLDRAFTSLFVASSSDNPNNIQHHPTAAYIVHDATSAVLKLGRRDALNRFQQHVHFQQGNVLDWATYLRALGSEQEATDILHAVQLLLMYPRLDEHVSTRRDHLLKLPFCVHPGTASLCCPLEWDEVDGFHPTEDAPKLHEMLLSRSLDVRWTLPLERMLKDMRTDEDENSS” stands “not soluble”.
In the case of “MSMLKPSGLKAPTKILKPGSTALKTPTAVVAPVEKTISSEKASSTPSSETQEEFVDDFRVGERVWVNGNKPGFIQFLGETQFAPGQWAGIVLDEPIGKNDGSVAGVRYFQCEPLKGIFTRPSKLTRKVQAEDEANGLQTTPASRATSPLCTSTASMVSSSPSTPSNIPQKPSQPAAKEPSATPPISNLTKTASESISNLSEAGSIKKGERELKIGDRVLVGGTKAGVVRFLGETDFAKGEWCGVELDEPLGKNDGAVAGTRYFQCQPKYGLFAPVHKVTKIGFPSTTPAKAKANAVRRVMATTSASLKRSPSASSLSSMSSVASSVSSRPSRTGLLTETSSRYARKISGTTALQEALKEKQQHIEQLLAERDLERAEVAKATSHVGEIEQELALARDGHDQHVLELEAKMDQLRTMVEAADREKVELLNQLEEEKRKVEDLQFRVEEESITKGDLETQTKLEHARIKELEQSLLFEKTKADKLQRELEDTRVATVSEKSRIMELEKDLALRVQEVAELRRRLESNKPAGDVDMSLSLLQEISSLQEKLEVTRTDHQREITSLKEHFGAREETHQKEIKALYTATEKLSKENESLKSKLEHANKENSDVIALWKSKLETAIASHQQAMEELKVSFSKGLGTETAEFAELKTQIEKMRLDYQHEIENLQNQQDSERAAHAKEMEALRAKLMKVIKEKENSLEAIRSKLDKAEDQHLVEMEDTLNKLQEAEIKKEKFAEASEEAVSVQRSMQETVNKLHQKEEQFNMLSSDLEKLRENLADMEAKFREKDEREEQLIKAKEKLENDIAEIMKMSGDNSSQLTKMNDELRLKERDVEELQLKLTKANENASFLQKSIEDMTVKAEQSQQEAAKKHEEEKKELERKLSDLEKKMETSHNQCQELKARYERATSETKTKHEEILQNLQKTLLDTEDKLKGAREENSGLLQELEELRKQAEKAKAAQTAEDAMQIMEQMTKEKTETLASLEDTKQTNAKLQNELDTLKENNLKNVEELNKSKELLTVENQKMEEFRKEIETLKQAAAQKSQQLSALQEENVKLAEELGRSRDEVTSHQKLEEERSVLNNQLLEMKKRESKFIKDADEEKASLQKSISITSALLTEKDAELEKLRNEVTVLRGENASAKSLHSVVQTLESDKVKLELKVKNLELQLKENKRQLSSSSGNTDTQADEDERAQESQQMIDFLNSVIVDLQRKNQDLKMKVEMMSEAALNGNGDDLNNYDSDDQEKQSKKKPRLFCDICDCFDLHDTEDCPTQAQMSEDPPHSTHHGSRGEERPYCEICEMFGHWATNCNDDETF” it was “soluble”; in that of “MSLSMSKRLLLFDFDETYFKHNTNEEDLSHLREMEKLLEKLTNNNEVMTAVLTGSTFQSVMDKMDQVNMTFKPLHIFSDLSSKMFTWNNGEYIESETYKKKVFSEPFLFEDIEDILRHISAQYNVEFIPQRAFEGNETHYNFYFHSTGNHSNDRRILEALVRYANDQNYTARFSRSNPLAGDPENAYDIDFTPSNAGKLYATQFLMKKYNIPVKSILGFGDSGNDEAYLSYLEHAYLMSNSRDEALKQKFRLTKYPYYQGITLHVKEFVEGKYDYEGHHHHHH”, “soluble”.
Under “MTTHRRRPKHDPKESEQEILNAAKQFLNERPFRELTVDEVMRRTGLKRPAFYVHFRDKHDLALRLVQAIGQELFGIADRWLEGDNPQEDLRRALVGLVEVYMKHSHVLRAFAEAASGDERVNSIYRAFVQEFISAAAQHIREEQATGQIQKDIDIDETARALIWLEERYLSDVFGRMPPADPEVVIRVLQNIWISTLYGSN” stands “soluble”.
For “MGSDKIHHHHHHMRDLLNDLSEGLSHPDPILRAQIQMQKPLPKRFYKDVTVADVEEGGFTILLDGKPLRTPAKKPLVAPSRALADLLRDEWDAQKEVVNPVVMPVSRHVNTAIDGIASDTQAVFEDILRFSSSDLLCYRAGDPEALVARQTDYWDPVLDWATNVLGARFILVEGVMHRDQPREAIAAFAVTLKKYDTPIALAALHTMTSLTGSAILALALAEGELTLEEAWALAHLDEDWTAEQWGEDEEALERRAVRLIDMRAALNVLESLKSAS”, the “soluble on expression in E. coli” value is on record as “not soluble”.
